The values below come from PMC6406002, “Comparison of the functional properties of trimeric and monomeric CaiT of Escherichia coli” (Scientific Reports, 2019).

The data set concerns the molecule itself. The data set can be described thus: SEC; gel filtration (Superdex 10/300 GL) after incubation at given temperature for 60 min in 100 mM potassium phosphate pH 7.5, 2 mM β-mercaptoethanol, 0.04% DDM. In general terms: SEC sorts molecules by how far they enter the pores of the column.

B1: L-carnitine/γ-butyrobetaine antiporter CaiT of Escherichia coli, wild-type (natural protein)
chain: not shown
notes: CaiT, L-carnitine/γ-butyrobetaine antiporter of E. coli; the caiT gene cloned into pET21a; also called CaiT(WT); WT; source: E. coli JW0039 with pET21a/caiT, purified (Ni-NTA), in detergent (DDM)
Consider B1, for which the binding result is “binds”.
